Experiment: yeast display, Sf9 membrane polyspecificity reagent, FACS + sequencing; frameworks hold sequencing errors
Procedure, shortened: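 After 36–48 hours of galactose induction, yeast (Saccharomyces cerevisiae BJ5465) displaying a synthetic nanobody library were stained at 4 °C for 1 hour with 10% biotinylated, detergent-solubilized Sf9 membrane reagent. Streptavidin microbeads enriched the stained cells before FACS sorting into low and high (top ~1%) gates on anti-HA and streptavidin fluorescence. Each clone's polyreactivity label reflects its gate of origin.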

Sequence	polyreactivity (PSR sort gate)
QVQLVESGGGLVQAGGSLRLSCAASGSTLYFYAMGWYRQAPGKERELVADITRSGGSTYYADSVKGRFTISRDNAKNTVYLQMNSLKPEDTAVYYCNADDWSTYWYGYPGYDYWGQGTQVTVSS	high polyreactivity
QVQLVESGGGLVQAGGSLRLSCAASGFTFTDYTMGWYRQAPGKEREFVAAISYRGSNTYYADSVKGRFTISRDNAKNTVYLQMNSLKPEDTAVYYCAADSYRYKYNYWGQGTQVTVSS	high polyreactivity
QVQLVESGGGLVQAGGSLRLSCAASGRNFFYALGWYRQAPGKERELVASITTSGTSTYYADSVKGRFTISRDNAKNIVYLQMNSLKPEDTAVYYCNATSNSIRWYDLYYWGQGTKVTVSS	low polyreactivity
QVQLVESGGGLVQAGGSLRLSCAASGFTFALYAMGWYRQAPGKEREVVASIDNGVSTNYADSVKGRFTISRDNAKNTVYLQMNSLKPEDTAVYYCAKGPGYGFYKLLSYDSWGQGTQVTVSS	low polyreactivity
QVQLVESGGGLVQAGGSLRLSCAASGYTFRSNTMGWYRQAPGKERELVAAISGRGSSTYYADSVKGRFTISRDNAKNTVYLQMNSLKPEDTAVYYCAAQSKYYQYYSWGQGNQVTVSS	high polyreactivity
QVQLVESGGGLVQAGGSLRLSCAGSGFTLDGYVMGWYRQAPGQEREFVAAIRSSGGSTRYADSVKGRFTISRDNAKNTVYLQMNSLKPEDTALYYSAAVAYYWGYEQWYDYWGQGTQVTVSS	high polyreactivity
QVQLVESGGGLVQAGGSLRLSCAASGNIFRGYTMGWSRQAPGKERELVAAISYSGGSTYADSVKGRFTISRDNAKNTVYLQMNSLKPEDTAVYYCNTDTSVDVRFDYWGQGTQVTVSS	low polyreactivity
QEQLQESGGGLVQAGGSLRMSCAASGTIFSEANKGWYRQAPGKERELVATIGQGSTTNYADSVKGRFTISRDNAKNTVYLQMNSLKPEETAVYYCAVVTVDPVGFVYWGQGTQVTVSS	low polyreactivity
QVQLVESGGGLVQAGGSLRLRCAASGLTFRKYPMGWYRPAPGKERELVATISRNGGSTYSADSVKGRFTISSDNAKITVYLQMNSLKPEDTAVYYCAADYYTYDYAGYGYWGQGTQVTVSS	high polyreactivity
QVQLVESGGGLVQAGGSLRLSCAASGFTFYNVMGWYRQAPGKERELVATISTSVDSTYYADSVKGRFTISRDNAKNTVYLQMNSLKPEDTAVYYCNADISSNYYDYFGYDYWGQGTQVTVSS	low polyreactivity
QVQLVESGGGLVQAGGSLRLSCAASGITFRYYAMGWYRQAPGKERELVAAISIRGRTYYADSVKGRFTISRDNAKNTVYLQMNSLKPEDTAVYYCAAVKRVVAFDYWGQGTQVTVSS	low polyreactivity
QVQLEESGGGLVQAGGSLRLSCAASGSIFITYAMGWYRQAPGKERELVAAIRDSGDRTYYADSVKGRFTISRDTAKNTVYLQMNSLKPEDTGVYYCNARWQETLKYDYWGQGTLVTVSS	low polyreactivity
QVQLVESGGGLDQAGGSLRLSCAASGSTFFKYAMGWYRQAPAKERELVAAISQNGGSTYYADSVKGRFTISRDNAKNTVYFQMNSLNPEDTAVYYCATGPNSYDYWGQGNQVTVSS	high polyreactivity
QVQLVESGGGLVQAGGSLRLSCAASGSIFWQYAMGWYRQAPGTERELVAAISSRGGSTYYADSVKGRFTISRDNAKNTVYLQMNTLKPEDTAVYYCAAHSVVRSYAARDSGYDYWGQGTQVTVSS	high polyreactivity
QVQLVESGGGLVQAGGSLRLSCAASGFTFGENAIGWYRQAPGKERELVAAIRYSGGSTYYADSVKGRFTISRDNAKNTVYLQMNSLKPEDTAVYYCNADTYALGAAVIPGDEYWGQGTQVTVSS	low polyreactivity
QVQLVESGGGLVQAGGSLRLSCAASGRTFVYNAMGWYRQAPGKERELVAAIDGGGDRTYYADSVKGRFTISRDNAKNTVYLQMTSLNPEDTAVYYCARDPGDTYYYSYPEGDYWGQGTQVTVSS	low polyreactivity
QVQLQERGGGLVQAGGSLCLTCEASGTIFYDGDMGLYRQAPGKEREFVAAINPGGSAYYADSVKGRLPLAAITHTVYLQMFSLKPEDTAVYYCAAEQITGWSRVWVSWYDYWGQGTQVTVSS	low polyreactivity
QVQLVESGGGLVQAGGRLRLSSAASGSIFDLYAMGWYRQAPGKERELVASIRYSGGRTYYADSVKGRFTISRDNAKNSVYLQMNSLNPEDTAFYYCNRDGGYTFIMDYWGQGTQVTVSS	low polyreactivity
QVQLVESGGGLVQAGGSLRLSCAASGFIFSRYPMGWYRQAPGKERELVASISWRGGSTSYADSVKGRFTISRDNAKNTVYLQMNSLKPEDTAVYYCAASSRQVLEYDYWGQGTQVTVSS	high polyreactivity
QVQLVESGGGLVQAGGSLRLSCAASGSTIYYAMGWYRQAPGKERELVAAISYSGGSTRYADSVKGRFTISRDNAKNTVYLEMNFLKPEDTSVYYCAAPRKYYYGESPLDYWGQGTQVTVSS	high polyreactivity
QVQLVESGGGLVQAGGSLRLSCAASGSIFVWNAMGWYIQAPRKERELVAAISYTDGSTYYADSVKGRFTISRDNAKNTVYLQMNSMNPEDTAVYYCAASTLKDIYLWFRVDYWGQCTQVTVSS	low polyreactivity
QVQLEESGGGLVQAGGRLRLTCAASGLTFYANAMGWYRQAPGKERELVATISVGTDSTNYADSVKGRFTISRDNAKNTVYLQMTSMKPEDTAVYYCKALYEEYYAQDPYDYWGQGTQVTVSS	high polyreactivity

Sequence	polyreactivity (PSR sort gate)
QVQLVESGGGLVQAGGSLRFSCAASGSIFGSYAMGWYRQAPGKERELVAAITRGGGTTYYADSVKGRFTISRDNAKNTVYLQMNSLKPEDTAVYYCAAKWYHPYGPVYYWGQGTQVTVSS	high polyreactivity
QVQLVESGGGLVQAGGSLRLSCAASGSTFVTYAMGCYRQAPGKERELVAVITYSGGNTYYADSVKGRVTISRDNAKNTVYLQMNSLKPEDTAVYDCAAAWLTSRGSRDSHRKYYYWGQGTQVTVSS	high polyreactivity
QVQLVESGGGLVQAGGSLRLSCAASGSISGYYVMGWYRQAPGKERELVAAITWRGGSTYYADSVKGRFTISRDNAKNTVYLQMNSLKPEDTAVYYCNKVPGRRSTFEYWGQGTQVTVSS	high polyreactivity
QVQLVESGGGLVQAGGSLRISCAASGSIFYQYAMGWYRQAPGKERELVAGITWSGGSTYYADSVKGRFTISRDNAKNTVYLQMNSLKPEDSAVYYCARRYRGGYFWGQGTQVTVSS	high polyreactivity
QVQLVESGGGLVQAGGSRRLSCAATGRTFGRYSMGWDRQAPGKERELVAAITTIGGSTYYADSVKGRFTISRDNAKNTVYLQMNSLKTEDTAVYYCAAGWVTNSDGMDYWGQGTQVTVSS	low polyreactivity
QVQLVESGGGLGHAGGSLRLSCAASGFTYTAYAMGWYRQAPGKERELVPSISKSDGSTYYADSVKGRFTISRDNAKNTVYLQMKSVKPEDTAVYYCATGRISRDFHRVQDLGYDYWGQGTQVNVSS	low polyreactivity
QVQLVESGGGLVQAGGSLRLSCAASGSTFWINTMGWYRQAPGKERELVAAITRSGGNTYYADSVKGRFTISRDNAKNTVYLQMNSLKPEDTAVYYCAAAYTRKYVTHGYWGQGTQVTVSS	high polyreactivity
QVQLVESGGGLVQAGGSLRLSCAASGSSKLMLWDGIDRRLGKKGSWLPLFVLVVLRNYADSVKGRFTISRDNAKNTVFLHMNSLKPEDTAVYYCAATPIGSGGWGDYWGQGTQVTVSS	low polyreactivity
QFQLVESGGGLVQAGGSLRLSCAASGSTIPRNAMGWYRQAPGKERELVAVITGSGGSTYYADSVKGRFTISRDNAKNTVYLQMNSLKPEDTAVYYCAAKYRFYGFDYWGQGTQLTVSS	high polyreactivity
QVQLVESGGGLVQAGGSLRLSCAASGSIFNQYAMGWHRQAPGKERELVAAISSDGGRTYYADSVKGRFTISRDNAKNTVYLQMNSLNPEDTAVYYCNKDVRPAYRWYDYWGQDTQVTVSS	low polyreactivity
QVQLVESGGGLVQAGGSLRLSCAASGSITGLNAMGWYRHAPGKERELVAAIYRSGGRTYNADSVKGRFTISRDNAKNTVYLQMISLKPEDTAVYYCAAVTTWRLDYWGQGTQVTVSS	high polyreactivity
QVQLVESGGGLVQAGGSLRLSCAASGFTFGPYTMGWYRQAPGKERELVAAISRSGTGTYYADSVKGRFTISRDNAKNTVYLQMNSLKPEDTAVYYCAADNGDNHGYYWGQGTQVTLSS	high polyreactivity
QVQLVESGGGLVQAGGSLRLSCAASGRTFSSYAMGWYRQAPGKERELVAAISSGGSTYYADSVKGRFTISRDNAKNTVYLQMNSLKPEDTAVYYCNRRFYYKIGRGIRYFWGQVTQVTVSS	high polyreactivity
QVQLVESGGVLVQAVGSLRLSCAASGSIFRLYALGWYREARGKEREFVATITWSGGSTSYADSVKGRFTISRDNAKNTVYLQMNSLKPEDTAVYYCAAKRRYWLYDWGQGTQVTVSS	high polyreactivity
QVQLEESGGGLVQAGGSLRLSWAASGITFAYYAMGWYRQAPGKERELVAAINYNGGRTYYADSVKGRFTISRDNAKNTVYLQMNSLKPEDTAVYYCAARGYRHFYYWGQGTQVTVSS	high polyreactivity
QVQLVESGGGLVQAGGSLRLSCAASGSTFIGFAMGWYRQAPGKERELVAAITSDGRTNYADSVKGRFTISRDNAKNTVYLQMNSLKPEDTAVYYCAAQILGTFYEYDYWGQGTQVTVSS	low polyreactivity
QVHLVESGGGLVQAGGSLRLSCAASGFTLYGNVMGWYRPAPGKERELVAAISWSTDSTYYADSLKGRFTISRDNAKNTVYLQMNSLKPEDTAIYYCAADYSHLPIAWYYYWGQGTQVTVSS	low polyreactivity
QVQIVESGGGLVQAGGSLRLSSAASGSIFPAYAMGWYSLAPWKERELVASITGSGGTTYYADSVKGRFTISRDNAKNTGYLQMNSLKPVDTADNYCNARYYVYSATVDRYGYWGQGSQVTVSS	high polyreactivity
QVQLVESGGGLVQAGGSLRLSCAASGSTIYYNAMGWYRQAPGKERELVARISRSGGSTYADSVKGRFTISRDNAKNTVYLQMNSVKPEDTAVYYCNADAYGTPEFSSYAVRYDYWGQGTQVTVSS	low polyreactivity
QVQLVESGGGLVQAGGSLRLSCAASGRTFQGYVMGWYRQAPRKERELVAAISRGTSTYYADSVKGRFTISRDNAKYTVYLQMNSLKPEDTAVYYCAADGERRHYWGQGTQVTVSS	low polyreactivity
QVHLVESGGGLVQAGGSLRLSFAAYGIIFKYYAMVWYRQAPGKERELVASITDRGGSTYYSDSLKGRFTISRDNAKNTFYLQMNSLKPEDTAVYYCAAVPSTGKSGIRGGYWGQCTQVTVSS	high polyreactivity

Source: the nanobody polyreactivity screen of Harvey et al. (2022)
